Substitutions are numbered along the chain they refer to.
B1: rabbit monoclonal antibody 17 (17H3-17K3) (antibody, V domains shown)
VH: QEQLVESGGGLVQPGASLTLTCTASGFSFSSSYVMCWVRQAPGKGLEWITCSDTGINTWYASWAKGRFTISKTSSTTVTLQMTSLTAADTATYFCARRYTGDTYLGNFNLWGQGTLVTVS
VL: AQVLTQTPASVSAAVGGTVTINCQASQSVYKNNYLSWYQQKPGQPPKLLIYKASTLASGVPSRFKGSGSGTQFTLTISDVQCDDAATYYCAGGWRSLNAFGGGTEVVVK
notes: Recombinant; also called Rabbit 17; clone 17
B2: rabbit monoclonal antibody 14 (14H1-14K2) (antibody, V domains shown)
VH: QEQLEESGGDLVKPEGSLTLTCTASGFSFSSNYVMCWVRQAPGKGLEWVACIWFAGIVDTTYYATWAKGRFTISKTSSTTVTLQMTSLTAADTATYFCARNPVGSVNLWGQGTLVTVS
VL: VMTQTPSSKSVPVGGSVTINCQASESVYSNNRLSWYQQKPGQPPKLLIYYASTLESGVPSRFKGSGFGTHFTLTISGAQCDDAATYYCAGWRGARTDGVDFGGGTEVVVK
notes: Recombinant; also called Rabbit 14; clone 14
B3: mouse monoclonal antibody 2F7 (antibody, V domains shown)
VH: DVKLVESGGGLVKLGGSLKLSCAASGFTFSSYYMSWVRQTPEKRLELVATINSNGGSTYYPDTVKGRITISRDNAKNTLQLQMSSLRSEDTALYYCVRQNYEGAYWGQGTLVTVSA
VL: DVLMTQTPLSLPVTLGDQASISCRSSQSIVHSNGNTYLEWYLQKPGQSPKLLIYKVSNRFSGVPDRFSGSGSGTDFTLKISRVEAEDLGVYYCFQSSHVPWTFGGGTKLEIK
notes: Mouse hybridoma antibody; also called Mouse 2F7
B4: mouse monoclonal antibody 3E8 (antibody, V domains shown)
VH: B3 VH
VL: B3 VL
notes: Mouse hybridoma antibody; also called Mouse 3E8
B5: rabbit monoclonal antibody 1 (1H3-1K3) (antibody, V domains shown)
VH: QSVEESGGRLVTPGTPLTLTCTVSGFSLSRYYMTWVRQAPGKGLEYIGVIIPGGTTYYASWAKGRFTISKTSTTVDLRITSPTTEDTATYFCAGGPTGNSHFTLWGQGTLVTVS
VL: VMTQTPSSKSVPVGGTVTINCQASESVYNNNHLSWYQQKSGQPPKLLIYEASKLESGVPPRFKGSGSGTQFTLTISDVVCDDAATYYCSGYKRVTTDGIAFGGGTEVVVK
notes: Recombinant; also called Rabbit 1; clone 1
B6: rabbit monoclonal antibody 38 (38H1-38K1) (antibody, V domains shown)
VH: B5 VH with L28F, R30A, Y46F, I50T, G53I, T55R, D76H, R78K, T89A
VL: B5 VL with G15D, H32Q, S40P, E50Q, P60S, S89A, R93S, V94P
notes: Recombinant; also called clone 38

Each binder was assayed against T1, DAGWGNLc (SEQ ID NO: 9) peptide conjugated to bovine serum albumin (human; bovine, UniProt P02769 25-607, N-terminus acetylated; C-terminal Cys conjugated to BSA) (assay: SPR, peptide-BSA immobilized (about 50 RU), antibody injected, Langmuir 1:1 fit).
T1 construct: TDP-43 residues 65-71 plus an added C-terminal cysteine; also called Peptide conjugated to bovine serum albumin (BSA)
T1 sequence (P02769 25-607 limits assumed): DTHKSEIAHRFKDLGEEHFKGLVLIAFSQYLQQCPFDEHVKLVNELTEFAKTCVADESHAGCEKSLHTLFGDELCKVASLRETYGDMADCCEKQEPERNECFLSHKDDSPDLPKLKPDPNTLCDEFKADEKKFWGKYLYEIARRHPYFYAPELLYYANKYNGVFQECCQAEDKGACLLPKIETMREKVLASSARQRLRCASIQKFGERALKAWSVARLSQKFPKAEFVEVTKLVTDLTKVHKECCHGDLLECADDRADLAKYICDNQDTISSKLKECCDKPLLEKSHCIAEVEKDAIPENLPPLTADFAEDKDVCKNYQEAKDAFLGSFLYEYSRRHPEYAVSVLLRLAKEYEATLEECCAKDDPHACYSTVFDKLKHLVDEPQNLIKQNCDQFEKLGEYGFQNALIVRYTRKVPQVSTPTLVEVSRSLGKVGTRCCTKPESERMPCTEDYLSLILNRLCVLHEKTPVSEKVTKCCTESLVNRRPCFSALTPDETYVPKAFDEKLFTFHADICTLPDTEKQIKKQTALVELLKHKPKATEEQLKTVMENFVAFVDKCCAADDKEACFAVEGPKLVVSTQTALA
Protocol: Surface plasmon resonance (SPR) analysis was used to measure the binding kinetics of monoclonal antibodies to the peptide epitope. Peptide conjugated to bovine serum albumin (BSA) was immobilized at a very low density (approximately 50 RUs) on flow cells of a sensor chip. Purified mouse or rabbit monoclonal antibodies diluted 4-fold from 31.25 nM to 0.24 nM were injected sequentially over the surfaces for approximately 5 min followed by dissociation in buffer and surface regeneration. Binding parameters were calculated using kinetic curve fitting and a Langmuir 1:1 interaction model.
In the case of B1, the Kd is reported as 91.9 pM, the koff is reported as 4.32e-05 s⁻¹ and the kon is reported as 470000 M⁻¹ s⁻¹.
In the case of B2, the Kd is reported as 15.1 pM, the koff is reported as 9.04e-06 s⁻¹ and the kon is reported as 599000 M⁻¹ s⁻¹.
Work on B3 yielded a Kd of 622 pM, a koff of 0.00176 s⁻¹ and a kon of 2.83e+06 M⁻¹ s⁻¹.
B4 showed a Kd of 722 pM, a koff of 0.002 s⁻¹ and a kon of 2.77e+06 M⁻¹ s⁻¹.
For B5, the Kd was 62 pM, the koff was 2.5e-05 s⁻¹ and the kon was 403000 M⁻¹ s⁻¹.

Each binder was assayed against T2, HA-tagged wild-type human TDP-43 with the original NLS sequence (WT-TDP43) (human, UniProt Q13148 1-414) (assay: immunocytochemistry, transfected HEK293FT cells; column: Binding to nuclear WT TDP-43).
T2 construct: whole, on cells; Overexpressed inside transfected HEK293FT cells; also called wildtype TDP-43-HA; WT nuclear TDP-43-HA; not shown: HA tag
T2 sequence (Q13148 whole entry): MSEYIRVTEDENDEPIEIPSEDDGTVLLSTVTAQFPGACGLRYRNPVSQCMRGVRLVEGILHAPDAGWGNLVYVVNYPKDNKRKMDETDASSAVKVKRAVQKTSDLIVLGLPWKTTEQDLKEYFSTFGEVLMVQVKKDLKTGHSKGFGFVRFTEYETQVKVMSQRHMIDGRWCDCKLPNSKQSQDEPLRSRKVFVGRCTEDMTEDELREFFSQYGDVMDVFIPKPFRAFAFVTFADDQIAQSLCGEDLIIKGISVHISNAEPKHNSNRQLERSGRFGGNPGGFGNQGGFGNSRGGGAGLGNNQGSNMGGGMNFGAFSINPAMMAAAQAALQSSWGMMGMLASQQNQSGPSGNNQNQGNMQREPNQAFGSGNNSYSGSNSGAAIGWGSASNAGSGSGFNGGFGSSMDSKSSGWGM
B2: no binding (tested: 10 ug/ml).
B6: no binding (tested: 10 ug/ml).

The binders below were run against T3, endogenous TDP-43 of HEK293FT cells (human, UniProt Q13148 1-414) (assay: immunocytochemistry, arsenite-stressed HEK293FT cells; column: Binding to stress granules).
T3 construct: whole, on cells; Two states of the same protein are tested: nuclear in cells transfected with empty vector, and in the stress granules of cells stressed with sodium arsenite; the state is named in each row; also called endogenous, nuclear WT TDP-43; TDP-43 in physiologic stress granules
T3 sequence (Q13148 whole entry): as above
B2: no binding (tested: 10 ug/ml).
B6: no binding (tested: 10 ug/ml).

Source: US20220056118A1 (UNIVERSITY OF BRITISH COLUMBIA, published 2022)
